Test results taken from patent US20190241654A1 (published 2019).
Residue numbers refer to the chain shown, from its start. Several values for one entry are separate records, joined by “and”; a condition that tells them apart may be missing. Equal entries are not always repeated. Each block holds one binder with its values, some of them ahead of it.

Key:
CD47 on CCRF-CEM cells [1] = target: T1, CD47 on CCRF-CEM cells (human, UniProt Q08722 19-323); test: flow cytometry on antibody-opsonized CCRF-CEM cells, anti-human Alexa 647 secondary, median fluorescence, sigmoidal fit
T1 construct: Target is CD47 carried by the CD47-positive cell line CCRF-CEM; also called Cluster of Differentiation 47; integrin-associated protein
Method: (§1) Phagocytosis was assayed by serum starving the macrophages in incomplete AIM V media for two hours. During this incubation period, target cells (CCRF-CEM) from two donors (donor 1 and donor 2) were labeled with CSFE (Invitrogen, #C34554) at […] for 15 minutes at room temperature. Cells were rinsed twice with PBS (Hyclone, #SH30028.02) and resuspended at 8×10⁵/mL in AIM V media. Antibody dilutions were prepared at 0.01 ug/ml to 10 ug/ml in half log dilutions and then incubated with the target cell line for 10 minutes at room temperature (a small portion is retained for flow cytometric analysis/cell binding), after which 100 μL of target cell/antibody suspension was added to the macrophage plates. Samples were treated in triplicate and with appropriate isotype controls.
(§2) Samples were incubated for 30 minutes at room temperature, rinsed 2× and then resuspended in FACS buffer and analyzed on the Attune. The EC50 values refer to the concentration that gives half the maximum binding measured as median fluorescent intensity, and was determined by non-linear fit of a sigmoidal dose response within the GraphPad Prism software.

CD47 on CCRF-CEM cells [2] = target: T1, CD47 on CCRF-CEM cells; test: cell-based or functional assay
CD47 on CCRF-CEM cells [3] = target: T1, CD47 on CCRF-CEM cells; test: flow cytometry on antibody-opsonized CCRF-CEM cells, anti-human Alexa 647 secondary, median fluorescence, sigmoidal fit; Donor 2
Method: as §1, §2

CD47 on CCRF-CEM cells [4] = target: T1, CD47 on CCRF-CEM cells; test: flow cytometry on antibody-opsonized CCRF-CEM cells, anti-human Alexa 647 secondary, median fluorescence, sigmoidal fit; Donor 1
Method: as §1, §2

T1 sequence (Q08722 19-323): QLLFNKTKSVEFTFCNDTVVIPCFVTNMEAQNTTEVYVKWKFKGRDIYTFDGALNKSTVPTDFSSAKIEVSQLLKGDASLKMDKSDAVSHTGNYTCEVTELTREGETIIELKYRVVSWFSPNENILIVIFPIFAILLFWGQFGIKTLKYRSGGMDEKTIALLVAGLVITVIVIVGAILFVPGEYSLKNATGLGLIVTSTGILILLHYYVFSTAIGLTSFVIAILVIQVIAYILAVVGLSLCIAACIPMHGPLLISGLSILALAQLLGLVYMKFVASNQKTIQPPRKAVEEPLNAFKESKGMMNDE

- EC50 (CD47 on CCRF-CEM cells [1]): 0.012 µg/mL
- Phagocytosis EC50 (ug/mL), Donor 1 (CD47 on CCRF-CEM cells [2]): 0.44 µg/mL and 0.19 µg/mL
- Phagocytosis EC50 (ug/mL), Donor 2 (CD47 on CCRF-CEM cells [2]): 0.71 µg/mL and 0.24 µg/mL
- EC50 (CD47 on CCRF-CEM cells [3]): 0.07 µg/mL
- EC50 (CD47 on CCRF-CEM cells [4]): 0.04 µg/mL
B1: Ab1119/Ab480 (LC Ab1119, HC Ab480) anti-CD47 antibody (antibody, V domains shown)
VH: QMQLVQSGAEVKKPGSSVKVSCKASGFNIKDYYLHWVRQAPGKGLEWMGWIDPDQGDTEYAQKFQGRVTITRDRSTSTAYMELRSLRAEDTAVYYCNAAYGSSSYPMDYWGQGTLVTVSS
VL: NIQMTQSPSSLSASVGDRVTITCRASQDIHRYLSWFQQKPGKVPKHLIYRANRLVSGVPSRFSGSGSGTEFTLTISSLQPEDFATYYCLQYDEFPYTFGGGTKVEIK
notes: Variant of AbParental

- EC50 (CD47 on CCRF-CEM cells [1]): 0.014 µg/mL
- Phagocytosis EC50 (ug/mL), Donor 1 (CD47 on CCRF-CEM cells [2]): 0.38 µg/mL
- Phagocytosis EC50 (ug/mL), Donor 2 (CD47 on CCRF-CEM cells [2]): 0.13 µg/mL
B2: AbParental, parental anti-CD47 antibody (antibody, human IgG4 S228P, kappa, V domains shown)
VH: B1 VH with P14T, K43Q, G44A, G66D, T76M, R84S, A88S, V93M, L115T
VL: NIQMTQSPSAMSASVGDRVTITCKASQDIHRYLSWFQQKPGKVPKHLIYRANRLVSGVPSRFSGSGSGTEFTLTISSLQPEDFATYYCLQYDEFPYTFGGGTKVEIKR
notes: Parental anti-CD47 antibody, described in WO 2013/119714 A1; also called Parental LC-HC; parental antibody

- EC50 (CD47 on CCRF-CEM cells [1]): 0.014 µg/mL and 0.035 µg/mL
- Phagocytosis EC50 (ug/mL), Donor 1 (CD47 on CCRF-CEM cells [2]): 0.36 µg/mL and 0.31 µg/mL and 0.14 µg/mL
- EC50 (CD47 on CCRF-CEM cells [3]): 0.16 µg/mL
- EC50 (CD47 on CCRF-CEM cells [4]): 0.06 µg/mL
B3: Ab1119/Ab356 (LC Ab1119, HC Ab356) anti-CD47 antibody (antibody, V domains shown)
VH: B1 VH with L115T
VL: B1 VL
notes: Variant of AbParental
